Test results from the RNAGym collection of RNA variant scans (doi:10.1073/pnas.2313332121).
Fewer inactive variants are shown than the library holds.

B1: TPR 5TU (parent)
chain: GGAUCUUCUCGAUCUAACAAAAAAGACAAAUCUGCCACAAAGCUUGAGAGCAUCUUCGGAUGCAGAGGCGGCAGCCUUCGGUGGCGCGAUAGCGCCAACGUUCUCAACUAUGACACGCAAAACGCGUGCUCCGUUGAAUGGAGUUUAUCAUG

Variants of: B1
Experiment: polymerase ribozyme fitness, log enrichment relative to wild type (log ratio); higher = more active; in vitro selection for triplet polymerase activity
Summary of the method: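 After PCR construction and transcription, each subunit's mutant library from a heterodimeric triplet polymerase ribozyme was annealed with a biotinylated primer, the partner subunit and triplets. Incubation was frozen, at −7 °C, and extended constructs were gel-excised, bound to streptavidin beads and amplified by RT-PCR, in one selection round done in triplicate. Fitness is the logarithm of a genotype's enrichment divided by that of the wild type, from inverse-variance-weighted replicate averages of Illumina-sequenced inputs and outputs. The base of the logarithm is 2, and genotypes needed ≥10 input reads and ≥1 read per output.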

Row | Variant | polymerase ribozyme fitness (log ratio)
1 | C105A G140U | -4.11
2 | G140U U144C | -3.28
3 | A119U G126A U135C G141C | -3.75
4 | C105U A120G A122C | 0.479
5 | C105G G141C | -2.56
6 | A121G G141U C149U | -3.72
7 | U102A C114U A115G A120U | -3.62
8 | C125G A142C | -4.01
9 | C114U A122G | -1.87
10 | C114U G124C | -4.11
11 | C114U G124U | -3.13
12 | C99U U104G | -1.84
13 | C108G G143C A147C | ≤ -4.2
14 | C125U U134A | -1.89
15 | U102A A113C | -3.86
16 | C118U A119U | -0.842
17 | C103G A120U U146G | -1.37
18 | U101A A115U G141A | -2.17
19 | G124U G140A | -4
20 | U102G C116G | -1.67
21 | A107G G141C | -3.86
22 | A107G G141A | -2.72
23 | A119U G140U | -3.25
24 | G141C G143C | ≤ -4.2

Row | Variant | polymerase ribozyme fitness (log ratio)
25 | G100C | -3.72
26 | G100U | -2.58
27 | G100A | -3.76
28 | A122G U139C | -4.09
29 | A122G G143A | -1.03
30 | U104A G143A | -1.63
31 | C123A G141C | 0.333
32 | G126U C149U | -1.96
33 | U102A | -0.854
34 | U102G | -2.51
35 | U102C | -0.787
36 | A107U U135C | -4.04
37 | U101A C105U C114A | -3.17
38 | G126A C132U | -0.105
39 | A115U G136A | -1.18
40 | U101G G128U U144G | -4
41 | G124C G136A | -2.84
42 | C103A U146C | -1.49
43 | A106G A113U U135G | ≤ -4.2
44 | A110G C149G | -3.83
45 | C116A U148C | -3.09
46 | C99U U144A | -1.02
47 | U101G A115G | -0.695
48 | A121G U127C | -2.42

Row | Variant | polymerase ribozyme fitness (log ratio)
49 | A115G G124C C132G A137U | ≤ -4.2
50 | A147U U148A | -2.81
51 | U109A U151A | ≤ -4.2
52 | C99U U145G | -2.09
53 | A113G A147C | -2.73
54 | A119U A121G U135C U146A A150G | -3.77
55 | U109C C114U | -3.87
56 | U135C U145C | -2.51
57 | C116U U145C U148C | -2.77
58 | C116U U151C | -4.04
59 | A121G U144C | -0.191
60 | C116G G124C U148C | ≤ -4.2
61 | G143C U146A | -3.65
62 | C114A G140A U148G | ≤ -4.2
63 | C103A A150G | -4.09
64 | G128A | -2.74
65 | G128C | -2.21
66 | G128U | -2.53
67 | U127G A147U | -3.92
68 | U146C A150U | 0.851
69 | G126A A138C | -3.73
70 | U102C U134G G136U A138U | ≤ -4.2
71 | C103A U109G | -3.53
72 | U101G A150G | -0.649

Row | Variant | polymerase ribozyme fitness (log ratio)
73 | A121G A122C A137C | -4.06
74 | U101C | 0.385
75 | U101G | 0.557
76 | U101A | 0.177
77 | C132G G133U | -2.9
78 | C105A C129G | ≤ -4.2
79 | A113U G117U | -2.07
80 | A119U G126A | 0.174
81 | G100A A107U | ≤ -4.2
82 | A115U C118A | -1.83
83 | U134A A142G U144G | -2.83
84 | G126A G140A | -3.54
85 | C99U A115C | -1.19
86 | A107G G140U U151A | ≤ -4.2
87 | A121C | 0.117
88 | A121U | -0.0614
89 | A121G | -0.0563
90 | A121G U135A | -0.777
91 | U127G U134C | -3.03
92 | G124C G143U | -3.2
93 | U104G A113U U127A G141A | ≤ -4.2
94 | C131G G133U | -3.77
95 | U101G U134A U144C A150U | -4.09
96 | A137G G141C | -2.74

Row | Variant | polymerase ribozyme fitness (log ratio)
97 | A110G U134G | -4.07
98 | A107C C116G | -3.74
99 | U102G U127C | -4.17
100 | G117U U135C | -2.36
101 | C114U U139C | -3.63
102 | U135C U151A | ≤ -4.2
103 | A115G U146A | -1.38
104 | A113U C116U | -1.33
105 | C118U A142G U148C | -2.86
106 | C118U A120G G143C | -2.13
107 | U109G A115U C125A | -4.05
108 | G140A G141A | -3.15
109 | A137U U144G | -4.2
110 | C132U U145G | -0.815
111 | C118U | -0.256
112 | C118A | -0.751
113 | C118G | -1.01
114 | C116A A142C | -3.92
115 | U102G A142U | -3.35
116 | C125A U146C | -0.394
117 | C125A U146G | -0.126
118 | A107G G143U | -3.81
119 | U134A G140A | -3.58
120 | C114U U151C | ≤ -4.2

Row | Variant | polymerase ribozyme fitness (log ratio)
121 | C114U U151G | -4.08
122 | G140C U144G | -3.51
123 | A107G A121U | -4.18
124 | C114U A137C | -3.52
125 | C116U U146A | -0.753
126 | A120U U135C | -2.85
127 | U104C G124U C125A G143U | -3.85
128 | G128A G136A | -4.18
129 | C105U U135A | 0.0587
130 | C103G G143U | ≤ -4.2
131 | U102C C114G | -4.11
132 | C131U U148C | -2.73
133 | A137U U145A A147C | ≤ -4.2
134 | A107U U109G | ≤ -4.2
135 | C103G C123G G136U | -2.77
136 | G143U G152A | -3.69
137 | C125G U127A | -3.68
138 | C103G A115C A137G C149G | ≤ -4.2
139 | U127C U139C U151G | ≤ -4.2
